Results from publication PMC9482650, “Quantitative fragmentomics allow affinity mapping of interactomes” (Nature Communications, 2022).

Tests used:
Assay in all cases: holdup assay
Parameters in all cases: key: below the threshold = too weak to quantify, mostly under pKd 3.1 to 4
[1] = molecular target: FRMPD4, Q14CM0
[2] = molecular target: NHERF4_4, Q86UT5
[3] = molecular target: NHERF4_1, Q86UT5-2
[4] = molecular target: MAST2, Q6P0Q8
[5] = molecular target: GORASP2, Q9H8Y8
[6] = molecular target: MAGI2_3, Q86UL8
Chain of MAGI2_3, Q86UL8 (Q86UL8 600-682): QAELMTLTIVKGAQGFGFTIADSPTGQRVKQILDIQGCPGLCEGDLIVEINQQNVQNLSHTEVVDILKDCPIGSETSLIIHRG

[7] = molecular target: DLG2_2, Q15700
Chain of DLG2_2, Q15700 (Q15700 189-283): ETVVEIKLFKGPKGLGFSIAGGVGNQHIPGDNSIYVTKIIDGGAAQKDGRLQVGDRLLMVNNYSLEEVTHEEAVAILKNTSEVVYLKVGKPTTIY

[8] = molecular target: MAGI2_5, Q86UL8
Chain of MAGI2_5, Q86UL8 (Q86UL8 915-1017): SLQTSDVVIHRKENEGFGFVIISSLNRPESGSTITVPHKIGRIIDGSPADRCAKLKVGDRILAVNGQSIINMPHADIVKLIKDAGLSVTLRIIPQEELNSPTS

[9] = molecular target: LIMK2, P53671
Chain of LIMK2, P53671 (P53671 143-248): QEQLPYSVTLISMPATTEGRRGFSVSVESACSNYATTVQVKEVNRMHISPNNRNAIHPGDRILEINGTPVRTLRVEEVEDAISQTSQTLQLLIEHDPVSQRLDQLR

[10] = molecular target: T1, PDZD2_2, O15018
T1 sequence (O15018 329-429, limits assumed, looked up): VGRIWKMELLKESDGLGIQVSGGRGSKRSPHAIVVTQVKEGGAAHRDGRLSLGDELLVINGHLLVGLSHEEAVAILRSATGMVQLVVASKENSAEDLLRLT

[11] = molecular target: T2, GRIP1_7, Q9Y3R0
T2 sequence (Q9Y3R0 999-1096, limits assumed, looked up): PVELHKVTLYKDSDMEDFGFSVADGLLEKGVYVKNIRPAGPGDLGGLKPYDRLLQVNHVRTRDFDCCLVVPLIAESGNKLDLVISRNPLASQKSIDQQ

[12] = molecular target: LNX1_3, Q8TBB1
Chain of LNX1_3, Q8TBB1 (Q8TBB1 500-596): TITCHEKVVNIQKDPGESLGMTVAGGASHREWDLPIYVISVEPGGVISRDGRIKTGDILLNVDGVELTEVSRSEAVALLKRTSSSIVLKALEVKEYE

[13] = molecular target: T3, TJP3_3, O95049
T3 sequence (O95049 375-456, limits assumed, looked up): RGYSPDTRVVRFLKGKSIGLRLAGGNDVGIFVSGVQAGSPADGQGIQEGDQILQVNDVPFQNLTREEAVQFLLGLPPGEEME

[14] = molecular target: T4, DFNB31_3, Q9P202
T4 sequence (Q9P202 811-907, limits assumed, looked up): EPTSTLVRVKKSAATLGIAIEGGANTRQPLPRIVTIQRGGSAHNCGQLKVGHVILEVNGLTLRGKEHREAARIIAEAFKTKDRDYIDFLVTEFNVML

[15] = molecular target: GRIP2_3, Q9C0E4
Chain of GRIP2_3, Q9C0E4 (Q9C0E4 238-339): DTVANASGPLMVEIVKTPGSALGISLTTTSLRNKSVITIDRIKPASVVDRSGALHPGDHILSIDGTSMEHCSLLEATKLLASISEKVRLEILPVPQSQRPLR

[16] = molecular target: DLG4_1, P78352
Chain of DLG4_1, P78352 (P78352 62-152): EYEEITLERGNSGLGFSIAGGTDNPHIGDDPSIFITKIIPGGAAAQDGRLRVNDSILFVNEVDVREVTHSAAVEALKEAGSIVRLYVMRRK

[17] = molecular target: FRMPD2_1, Q68DX3
Chain of FRMPD2_1, Q68DX3 (Q68DX3 770-861): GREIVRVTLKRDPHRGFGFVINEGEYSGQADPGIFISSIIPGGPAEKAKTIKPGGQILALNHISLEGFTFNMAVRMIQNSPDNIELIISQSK

[18] = molecular target: T5, NHERF3_1, Q5T2W1
T5 sequence (Q5T2W1 4-100, limits assumed, looked up): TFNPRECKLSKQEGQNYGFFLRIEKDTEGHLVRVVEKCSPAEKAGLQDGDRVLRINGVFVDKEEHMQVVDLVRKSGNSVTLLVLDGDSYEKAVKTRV

[19] = molecular target: SNX27, Q96L92
[20] = molecular target: SCRIB_1, Q14160
Chain of SCRIB_1, Q14160 (Q14160 718-814): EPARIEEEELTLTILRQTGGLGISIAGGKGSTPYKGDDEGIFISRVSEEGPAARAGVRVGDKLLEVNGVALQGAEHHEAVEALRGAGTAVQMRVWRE

[21] = molecular target: GOPC, Q9HD26
[22] = molecular target: DLG1_3, Q12959
Chain of DLG1_3, Q12959 (Q12959 457-571): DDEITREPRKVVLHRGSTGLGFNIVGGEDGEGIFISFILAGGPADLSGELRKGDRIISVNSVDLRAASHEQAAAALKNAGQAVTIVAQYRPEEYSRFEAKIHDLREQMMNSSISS

[23] = molecular target: SCRIB_2, Q14160
Chain of SCRIB_2, Q14160 (Q14160 857-960): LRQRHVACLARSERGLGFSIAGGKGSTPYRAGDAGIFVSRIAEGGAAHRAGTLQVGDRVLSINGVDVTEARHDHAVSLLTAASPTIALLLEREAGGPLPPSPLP

[24] = molecular target: T6, HTRA4, P83105
T6 sequence (P83105 378-476, limits assumed, looked up): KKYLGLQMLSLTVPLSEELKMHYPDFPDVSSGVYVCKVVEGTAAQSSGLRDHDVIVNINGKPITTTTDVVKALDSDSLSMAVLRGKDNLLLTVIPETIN

[25] = molecular target: Inadl_8, Q8NI35
Chain of Inadl_8, Q8NI35 (Q8NI35 1425-1530): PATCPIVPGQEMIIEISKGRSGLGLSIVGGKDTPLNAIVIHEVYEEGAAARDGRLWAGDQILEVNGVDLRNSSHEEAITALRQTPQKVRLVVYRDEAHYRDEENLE

[26] = molecular target: DLG4_3, P78352
Chain of DLG4_3, P78352 (P78352 306-403): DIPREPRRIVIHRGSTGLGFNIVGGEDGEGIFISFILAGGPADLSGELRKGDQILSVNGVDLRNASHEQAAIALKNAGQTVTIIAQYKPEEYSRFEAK

[27] = molecular target: LNX1_1, Q8TBB1
Chain of LNX1_1, Q8TBB1 (Q8TBB1 261-371): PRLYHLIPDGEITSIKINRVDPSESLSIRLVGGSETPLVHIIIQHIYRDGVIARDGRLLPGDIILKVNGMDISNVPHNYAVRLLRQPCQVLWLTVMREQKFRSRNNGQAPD

[28] = molecular target: T7, DLG3_3, Q92796
T7 sequence (Q92796 374-475, limits assumed, looked up): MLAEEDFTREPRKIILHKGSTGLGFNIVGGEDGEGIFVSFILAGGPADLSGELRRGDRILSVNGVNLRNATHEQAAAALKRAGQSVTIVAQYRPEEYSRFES

[29] = molecular target: T8, APBA2_1, Q99767
T8 sequence (Q99767 563-664, limits assumed, looked up): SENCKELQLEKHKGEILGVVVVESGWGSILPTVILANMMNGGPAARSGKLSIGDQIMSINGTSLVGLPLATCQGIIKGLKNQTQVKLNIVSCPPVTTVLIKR

[30] = molecular target: DLG4_2, P78352
Chain of DLG4_2, P78352 (P78352 155-259): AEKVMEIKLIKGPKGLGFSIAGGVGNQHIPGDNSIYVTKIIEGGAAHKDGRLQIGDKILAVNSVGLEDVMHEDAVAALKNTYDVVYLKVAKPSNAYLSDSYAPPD

[31] = molecular target: Inadl_2, Q8NI35
Chain of Inadl_2, Q8NI35 (Q8NI35 238-335): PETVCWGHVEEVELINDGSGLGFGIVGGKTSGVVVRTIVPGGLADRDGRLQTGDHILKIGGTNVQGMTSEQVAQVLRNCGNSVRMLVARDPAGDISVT

[32] = plain residues with an end cap or a label only (N-terminal biotin on a linker: ttds)
[33] = plain residues with an end cap or a label only (N-terminal biotin on a linker: ado-ado)

Chain of MAST2, Q6P0Q8 (Q6P0Q8 1099-1202): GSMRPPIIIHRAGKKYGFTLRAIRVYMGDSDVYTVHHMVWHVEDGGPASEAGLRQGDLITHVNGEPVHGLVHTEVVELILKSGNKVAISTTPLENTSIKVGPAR
Chain of NHERF4_1, Q86UT5-2 (Q86UT5 other isoform, or with tags, fused parts or gaps): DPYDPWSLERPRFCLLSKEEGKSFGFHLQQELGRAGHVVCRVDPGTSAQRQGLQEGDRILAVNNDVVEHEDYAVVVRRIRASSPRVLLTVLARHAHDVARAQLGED
Chain of FRMPD4, Q14CM0 (Q14CM0 67-160): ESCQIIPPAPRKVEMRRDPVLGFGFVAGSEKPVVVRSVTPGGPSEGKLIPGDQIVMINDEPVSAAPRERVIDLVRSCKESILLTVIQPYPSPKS
Chain of NHERF4_4, Q86UT5 (Q86UT5 464-550): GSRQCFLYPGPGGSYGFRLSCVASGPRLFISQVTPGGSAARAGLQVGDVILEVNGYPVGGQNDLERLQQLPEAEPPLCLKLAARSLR

VNKVWDQSSV [CIT, O14578]
pKd [1, 32]: below the threshold | pKd [2, 32]: below the threshold | pKd [3, 32]: below the threshold | pKd [4, 32]: 5.14 | pKd [5, 32]: below the threshold | pKd [6, 32]: below the threshold | pKd [7, 32]: below the threshold | pKd [8, 32]: 3.7 | pKd [9, 32]: below the threshold | pKd [10, 32]: 4.86 | pKd [11, 32]: below the threshold | pKd [12, 32]: below the threshold | pKd [13, 32]: below the threshold | pKd [14, 32]: below the threshold | pKd [15, 32]: below the threshold | pKd [16, 32]: below the threshold | pKd [17, 32]: below the threshold | pKd [18, 32]: below the threshold | pKd [19, 32]: 5.11 | pKd [20, 32]: 5.04 | pKd [21, 32]: 3.77 | pKd [22, 32]: 3.49 | pKd [23, 32]: 3.51 | pKd [24, 32]: below the threshold | pKd [25, 32]: 4 | pKd [26, 32]: 3.62 | pKd [27, 32]: below the threshold | pKd [28, 32]: 3.7 | pKd [29, 32]: below the threshold | pKd [30, 32]: below the threshold | pKd [31, 32]: below the threshold

EDLTKNHDEL [RCN1, Q15293]
pKd [1, 33]: 4.09 | pKd [2, 33]: 4.01 | pKd [3, 33]: 3.93 | pKd [4, 33]: below the threshold | pKd [5, 33]: below the threshold | pKd [6, 33]: below the threshold | pKd [7, 33]: below the threshold | pKd [8, 33]: below the threshold | pKd [9, 33]: below the threshold | pKd [10, 33]: 3.62 | pKd [11, 33]: below the threshold | pKd [12, 33]: 3.54 | pKd [13, 33]: below the threshold | pKd [14, 33]: below the threshold | pKd [15, 33]: 3.51 | pKd [16, 33]: 3.57 | pKd [17, 33]: below the threshold | pKd [18, 33]: 3.75 | pKd [19, 33]: 4 | pKd [20, 33]: 3.5 | pKd [21, 33]: 3.52 | pKd [22, 33]: 3.8 | pKd [23, 33]: 3.54 | pKd [24, 33]: below the threshold | pKd [25, 33]: below the threshold | pKd [26, 33]: 4 | pKd [27, 33]: 3.6 | pKd [28, 33]: below the threshold | pKd [29, 33]: 3.49 | pKd [30, 33]: 3.62 | pKd [31, 33]: below the threshold

GFGEERESIL [KIDINS220, Q9ULH0]
pKd [1, 33]: 3.92 | pKd [2, 33]: below the threshold | pKd [3, 33]: 3.77 | pKd [4, 33]: 5.32 | pKd [5, 33]: below the threshold | pKd [6, 33]: 3.48 | pKd [7, 33]: below the threshold | pKd [8, 33]: 4.08 | pKd [9, 33]: below the threshold | pKd [10, 33]: 4.65 | pKd [11, 33]: below the threshold | pKd [12, 33]: below the threshold | pKd [13, 33]: below the threshold | pKd [14, 33]: below the threshold | pKd [15, 33]: below the threshold | pKd [16, 33]: below the threshold | pKd [17, 33]: below the threshold | pKd [18, 33]: 5.06 | pKd [19, 33]: 5.59 | pKd [20, 33]: below the threshold | pKd [21, 33]: 3.55 | pKd [22, 33]: below the threshold | pKd [23, 33]: below the threshold | pKd [24, 33]: below the threshold | pKd [25, 33]: below the threshold | pKd [26, 33]: below the threshold | pKd [27, 33]: 3.88 | pKd [28, 33]: below the threshold | pKd [29, 33]: below the threshold | pKd [30, 33]: 3.5 | pKd [31, 33]: below the threshold
